Results taken from publication PMC4066111 (Nature, 2014).

B1: NO66 (Nucleolar protein 66), aa 183-641, wild type (enzyme)
chain: SPLRRVLAELNRIPSSRRRAARLFEWLIAPMPPDHFYRRLWEREAVLVRRQDHTYYQGLFSTADLDSMLRNEEVQFGQHLDAARYINGRRETLNPPGRALPAAAWSLYQAGCSLRLLCPQAFSTTVWQFLAVLQEQFGSMAGSNVYLTPPNSQGFAPHYDDIEAFVLQLEGRKLWRVYRPRVPTEELALTSSPNFSQDDLGEPVLQTVLEPGDLLYFPRGFIHQAECQDGVHSLHLTLSTYQRNTWGDFLEAILPLAVQAAMEENVEFRRGLPRDFMDYMGAQHSDSKDPRRTAFMEKVRVLVARLGHFAPVDAVADQRAKDFIHDSLPPVLTDRERALSVYGLPIRWEAGEPVNVGAQLTTETEVHMLQDGIARLVGEGGHLFLYYTVENSRVYHLEEPKCLEIYPQQADAMELLLGSYPEFVRVGDLPCDSVEDQLSLATTLYDKGLLLTKMPLALN
B2: Mina53 (MYC-induced nuclear antigen), aa 26-465, wild type (enzyme)
chain: AAGGPSALNFDSPSSLFESLISPIKTETFFKEFWEQKPLLIQRDDPALATYYGSLFKLTDLKSLCSRGMYYGRDVNVCRCVNGKKKVLNKDGKAHFLQLRKDFDQKRATIQFHQPQRFKDELWRIQEKLECYFGSLVGSNVYITPAGSQGLPPHYDDVEVFILQLEGEKHWRLYHPTVPLAREYSVEAEERIGRPVHEFMLKPGDLLYFPRGTIHQADTPAGLAHSTHVTISTYQNNSWGDFLLDTISGLVFDTAKEDVELRTGIPRQLLLQVESTTVATRRLSGFLRTLADRLEGTKELLSSDMKKDFIMHRLPPYSAGDGAELSTPGGKLPRLDSVVRLQFKDHIVLTVLPDQDQSDEAQEKMVYIYHSLKNSRETHMMGNEEETEFHGLRFPLSHLDALKQIWNSPAISVKDLKLTTDEEKESLVLSLWTECLIQVV
B3: ycfD from Escherichia coli, full length, wild type (enzyme)
chain: MEYQLTLNWPDFLERHWQKRPVVLKRGFNNFIDPISPDELAGLAMESEVDSRLVSHQDGKWQVSHGPFESYDHLGETNWSLLVQAVNHWHEPTAALMRPFRELPDWRIDDLMISFSVPGGGVGPHLDQYDVFIIQGTGRRRWRVGEKLQMKQHCPHPDLLQVDPFEAIIDEELEPGDILYIPPGFPHEGYALENAMNYSVGFRAPNTRELISGFADYVLQRELGGNYYSDPDVPPRAHPADVLPQEMDKLREMMLELINQPEHFKQWFGEFISQSRHELDIAPPEPPYQPDEIYDALKQGEVLVRLGGLRVLRIGDDVYANGEKIDSPHRPALDALASNIALTAENFGDALEDPSFLAMLAALVNSGYWFFEG

Columns and labels:
crystal structure = target: the molecule itself; test: crystal structure
Y209C Mina53 (aa 26-465) = Y209C Mina53 (aa 26-465) (human, UniProt Q8IUF8 26-465, Y209C); test: cross-linking
[1] = target: B1; test: cross-linking
[2] = target: L299C/C300S NO66 (aa 183-641) (human, UniProt Q9H6W3 183-641, L299C | C300S); test: cross-linking

Binder | binding result (crystal structure) | further results
B1 | binds | 
RGNAGCLHHHRINFDKYHP [rpL27a (32-50) G37C peptide] |  | binding result (Y209C Mina53 (aa 26-465)): binds
B2 | binds | 
B3 | binds | 
NPVEHPFGGGNHQHICKPST [rpL8 (205-224) G220C peptide] |  | binding result [1]: binds; binding result [2]: binds
